Test in all cases: two-hybrid library CCmax;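 further: natural log of median RNA to DNA barcode read ratio; higher means stronger binding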
One experiment concerns the target T1, 4H2699-AA.
T1 chain: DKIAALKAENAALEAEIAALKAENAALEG
The following applies: mean of both orientations.

The target in the next experiment is T2, 4H3129-AA.
T2 chain: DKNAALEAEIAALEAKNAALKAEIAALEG
The following applies: mean of both orientations.

The next experiment concerns the target T3, 4H3629-AA.
T3 chain: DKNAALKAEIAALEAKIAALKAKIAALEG
The following applies: mean of both orientations.

A further experiment addresses T4, 4H446-AA.
T4 chain: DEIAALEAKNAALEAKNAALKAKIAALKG
The following applies: mean of both orientations.

A further experiment deals with T5, 4H464-AA.
T5 chain: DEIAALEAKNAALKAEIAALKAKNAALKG

Another experiment concerns the target T6, 4H63-AA.
T6 chain: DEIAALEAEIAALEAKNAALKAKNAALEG
The following applies: mean of both orientations.

The next experiment concerns the target T7, 4H2466-AA.
T7 chain: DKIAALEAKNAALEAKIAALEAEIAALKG
The following applies: mean of both orientations.

The target in another experiment is T8, 4H2592-AA.
T8 chain: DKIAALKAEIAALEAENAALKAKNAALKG
The following applies: mean of both orientations.

The next experiment concerns the target T9, 4H2865-AA.
T9 chain: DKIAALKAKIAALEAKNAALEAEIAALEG

In the next experiment the target is T10, 4H2931-AA.
T10 chain: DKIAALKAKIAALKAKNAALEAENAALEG
The following applies: mean of both orientations.

In another experiment the target is T11, 4H3015-AA.
T11 chain: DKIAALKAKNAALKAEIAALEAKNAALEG
The following applies: mean of both orientations.

The target of the next experiment is T12, 4H3073-AA.
T12 chain: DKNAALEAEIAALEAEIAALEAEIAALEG

The target in another experiment is T13, 4H3165-AA.
T13 chain: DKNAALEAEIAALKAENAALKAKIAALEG
The following applies: mean of both orientations.

In the next experiment the target is T14, 4H452-AA.
T14 chain: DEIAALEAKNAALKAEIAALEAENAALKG
The following applies: mean of both orientations.

A further experiment concerns the target T15, 4H485-AA.
T15 chain: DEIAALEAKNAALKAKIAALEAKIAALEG
The following applies: mean of both orientations.

A further experiment has as its target T16, 4H629-AA.
T16 chain: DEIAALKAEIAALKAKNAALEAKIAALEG
The following applies: mean of both orientations.

The target in a further experiment is T17, 4H745-AA.
T17 chain: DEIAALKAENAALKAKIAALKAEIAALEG
The following applies: mean of both orientations.

Another experiment has as its target T18, 4H850-AA.
T18 chain: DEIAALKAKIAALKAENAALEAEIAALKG
The following applies: mean of both orientations.

Another experiment concerns the target T19, 4H1401-AA.
T19 chain: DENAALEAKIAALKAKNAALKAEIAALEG

A further experiment deals with T20, 4H1594-AA.
T20 chain: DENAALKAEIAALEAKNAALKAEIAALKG
The following applies: mean of both orientations.

A further experiment concerns the target T21, 4H2165-AA.
T21 chain: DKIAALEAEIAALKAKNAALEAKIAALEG

The target of a further experiment is T22, 4H2190-AA.
T22 chain: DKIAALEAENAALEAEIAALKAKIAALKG
The following applies: mean of both orientations.

The target in a further experiment is T23, 4H2198-AA.
T23 chain: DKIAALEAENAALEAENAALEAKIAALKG
The following applies: mean of both orientations.

A further experiment concerns the target T24, 4H2393-AA.
T24 chain: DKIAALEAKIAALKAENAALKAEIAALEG
The following applies: mean of both orientations.

Another experiment concerns the target T25, 4H2620-AA.
T25 chain: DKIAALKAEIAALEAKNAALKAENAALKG
The following applies: mean of both orientations.

Another experiment addresses T26, 4H2837-AA.
T26 chain: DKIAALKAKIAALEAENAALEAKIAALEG

A further experiment has as its target T27, 4H2907-AA.
T27 chain: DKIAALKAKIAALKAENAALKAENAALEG
The following applies: mean of both orientations.

In the next experiment the target is T28, 4H2944-AA.
T28 chain: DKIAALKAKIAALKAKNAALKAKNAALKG
The following applies: mean of both orientations.

The target of another experiment is T29, 4H342-AA.
T29 chain: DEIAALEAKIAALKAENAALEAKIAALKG
The following applies: mean of both orientations.

A further experiment has as its target T30, 4H3627-AA.
T30 chain: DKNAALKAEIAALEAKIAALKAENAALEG
The following applies: mean of both orientations.

The next experiment concerns the target T31, 4H3631-AA.
T31 chain: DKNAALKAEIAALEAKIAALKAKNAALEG
The following applies: mean of both orientations.

The next experiment deals with T32, 4H429-AA.
T32 chain: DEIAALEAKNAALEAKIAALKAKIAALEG
The following applies: mean of both orientations.

In the next experiment the target is T33, 4H454-AA.
T33 chain: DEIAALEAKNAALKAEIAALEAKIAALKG
The following applies: mean of both orientations.

The target in the next experiment is T34, 4H48-AA.
T34 chain: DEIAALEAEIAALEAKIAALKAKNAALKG
The following applies: mean of both orientations.

The target of the next experiment is T35, 4H605-AA.
T35 chain: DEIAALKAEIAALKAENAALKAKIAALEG
The following applies: mean of both orientations.

Another experiment deals with T36, P10-AA.
T36 chain: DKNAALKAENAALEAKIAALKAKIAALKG
The following applies: mean of both orientations.

The next experiment concerns the target T37, 4H174-AA.
T37 chain: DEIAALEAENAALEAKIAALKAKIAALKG
The following applies: mean of both orientations.

In another experiment the target is T38, 4H1877-AA.
T38 chain: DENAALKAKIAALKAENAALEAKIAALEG
The following applies: mean of both orientations.

Another experiment addresses T39, O11-AA.
T39 chain: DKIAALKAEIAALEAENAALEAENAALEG
The following applies: mean of both orientations.

A further experiment has as its target T40, O13-AA.
T40 chain: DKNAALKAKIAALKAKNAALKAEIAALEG
The following applies: mean of both orientations.

The target in a further experiment is T41, O14-AA.
T41 chain: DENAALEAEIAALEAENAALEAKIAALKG
The following applies: mean of both orientations.

Read-outs that look alike come from different tables or passages of the source.

B1: 4H1064-AA (peptide)
chain: DENAALEAEIAALEAKIAALEAKNAALKG
As for B1, the interaction score in the experiment with 4H2699-AA was -1.48; in the experiment with 4H3129-AA, -1.71; with 4H3629-AA it was 0.654; in the experiment with 4H446-AA, -1.26; with 4H464-AA, -1.84; in the experiment with 4H63-AA it was -1.29.

B2: 4H2253-AA (peptide)
chain: DKIAALEAENAALKAEIAALKAKIAALEG
With B2, the interaction score with 4H2466-AA is -1.68; with 4H2592-AA it was -1.61; with 4H2865-AA (mean of both orientations), -1.42; with 4H2931-AA, -1.52; with 4H3015-AA, -1.11; with 4H3073-AA (mean of both orientations) it was -0.681. Besides, the interaction score in the experiment with 4H3165-AA was -1.44; with 4H452-AA it was -1.74; with 4H485-AA, -0.48; in the experiment with 4H629-AA, -1.74; with 4H745-AA it was 0.647; with 4H850-AA, -0.973.

B3: 4H1401-AA (peptide)
chain: DENAALEAKIAALKAKNAALKAEIAALEG
Turning to B3, the interaction score was -1.49 with 4H1401-AA; -0.109 in the experiment with 4H1594-AA; -1.62 in the experiment with 4H2165-AA (mean of both orientations); 1.09 with 4H2190-AA; 1.85 with 4H2198-AA; -1.43 with 4H2393-AA. For the same molecule, the interaction score with 4H2466-AA was -1.54; in the experiment with 4H2620-AA it was -1.63; in the experiment with 4H2837-AA (mean of both orientations) it was 1.61; with 4H2907-AA it was -1.63; with 4H2944-AA, -1.67; in the experiment with 4H342-AA, 2.15. Besides, the interaction score was -1.38 with 4H3627-AA; -1.4 with 4H3631-AA; 0.239 in the experiment with 4H429-AA; -1.2 with 4H454-AA; 0.338 with 4H48-AA; -1.38 with 4H605-AA. Further, the interaction score with P10-AA is -0.931.

B4: 4H3606-AA (peptide)
chain: DKNAALKAEIAALEAENAALEAKIAALKG
Regarding B4, the interaction score is -1.29 with 4H3627-AA; -0.831 with 4H3631-AA; 0.643 with 4H429-AA; 1.23 with 4H454-AA; -0.695 with 4H48-AA; 0.159 with 4H605-AA. The molecule also came in with an interaction score with P10-AA of 0.12.

B5: 4H1626-AA (peptide)
chain: DENAALKAEIAALKAENAALKAEIAALKG
Regarding B5, the interaction score with 4H174-AA was -1.63; with 4H1877-AA, -0.845; in the experiment with 4H2592-AA it was -1.24; with 4H2865-AA (mean of both orientations) it was -1.68; in the experiment with 4H3165-AA it was -0.447; with 4H485-AA, -1.46. The interaction score is -1.63 with 4H629-AA, -1.25 in the experiment with 4H745-AA and 1.29 with 4H850-AA.

B6: 4H2165-AA (peptide)
chain: DKIAALEAEIAALKAKNAALEAKIAALEG
As to B6, the interaction score is 1.41 with 4H2165-AA; -1.12 with 4H2190-AA; -0.392 with 4H2393-AA; -1.49 with 4H2466-AA; -0.973 with 4H2592-AA; 0.959 with 4H2837-AA. The interaction score was -1.58 with 4H2931-AA; -1.53 in the experiment with 4H2944-AA; -1.54 with 4H3015-AA; -1.45 with 4H3073-AA; 1.73 in the experiment with 4H342-AA; -1.58 with 4H3627-AA. Besides, the interaction score in the experiment with 4H429-AA is -1.87; in the experiment with 4H452-AA, -1.51; with 4H454-AA, -0.571; with 4H48-AA, -1.31; with 4H605-AA, -1.15.

B7: 4H1257-AA (peptide)
chain: DENAALEAENAALKAKIAALKAEIAALEG
As for B7, the interaction score with 4H2699-AA was -0.951; with 4H3129-AA, -1.9; with 4H3629-AA it was 0.329; with 4H446-AA, -1.65; in the experiment with 4H464-AA (mean of both orientations), -1.07; in the experiment with 4H63-AA, -1.72.

B8: 4H249-AA (peptide)
chain: DEIAALEAENAALKAKNAALKAEIAALEG
For B8, the interaction score is -0.437 in the experiment with 4H2592-AA; -1.1 with 4H2699-AA; -1.53 with 4H2931-AA; -1.1 with 4H3015-AA; -1.75 with 4H3073-AA (mean of both orientations); -2.01 with 4H3129-AA. Further, the interaction score with 4H3629-AA is -1.69; with 4H446-AA it was -1.26; with 4H452-AA, -1.53; with 4H464-AA (mean of both orientations) it was -1.77; with 4H63-AA, -1.75.

B9: 4H1845-AA (peptide)
chain: DENAALKAKIAALEAKNAALEAKIAALEG
In the case of B9, the interaction score with 4H2198-AA was -1.5; with 4H2620-AA it was -1.86; in the experiment with 4H2907-AA it was -1.92; with 4H3631-AA, -1.57.

B10: 4H171-AA (peptide)
chain: DEIAALEAENAALEAKIAALKAENAALEG
For B10, the interaction score in the experiment with 4H174-AA was -1.16; in the experiment with 4H1877-AA it was -1.1; with 4H2865-AA, -0.997; with 4H3165-AA, -1.21; in the experiment with 4H485-AA, -0.423; in the experiment with 4H629-AA, -1.29. For the same molecule, the interaction score was -1.45 in the experiment with 4H745-AA; -1.11 with 4H850-AA; -1.82 with O11-AA; 2.21 with O13-AA; -1.07 with O14-AA; -1.48 in the experiment with P10-AA.

B11: 4H1350-AA (peptide)
chain: DENAALEAKIAALKAEIAALEAKIAALKG
On to B11, for which the figures for the interaction score with O11-AA, in the experiment with O13-AA and in the experiment with O14-AA were -0.612, 0.34 and -0.655, respectively.
